# Test results as given in ChEMBL document CHEMBL2073879, “Human monocarboxylate transporter 2 (MCT2) is a high affinity pyruvate transporter” (J Biol Chem, 1998).
# Experiments:
# [1] = substrate: CC(O)C(=O)[O-].[Na+]; assay: (§1) TP_TRANSPORTER: uptake in Xenopus laevis oocytes; assay type: functional, cell-based; details: Oocyte
# [2] = substrate: CC(=O)C(=O)O; assay: as §1; assay type: functional, cell-based; details: Oocyte
Protein,Km [1] [mM],Km [2] [mM]
"Monocarboxylate transporter 1 (Rattus norvegicus), P53987 (protein) MPPAIGGPVGYTPPDGGWGWAVVVGAFISIGFSYAFPKSITVFFKEIEIIFSATTSEVSWISSIMLAVMYAGGPISSILVNKYGSRPVMIAGGCLSGCGLIAASFCNTVQELYFCIGVIGGLGLAFNLNPALTMIGKYFYKKRPLANGLAMAGSPVFLSTLAPLNQAFFGIFGWRGSFLILGGLLLNCCVAGSLMRPIGPQQGKVEKLKSKESLQEAGKSDANTDLIGGSPKGEKLSVFQTVNKFLDLSLFTHRGFLLYLSGNVVMFFGLFTPLVFLSNYGKSKHFSSEKSAFLLSILAFVDMVARPSMGLAANTRWIRPRVQYFFAASVVANGVCHLLAPLSTTYVGFCIYAGVFGFAFGWLSSVLFETLMDLVGPQRFSSAVGLVTIVECCPVLLGPPLLGRLNDMYGDYKYTYWACGVILIIAGLYLFIGMGINYRLVAKEQKAEEKKRDGKEDETSTDVDEKPKKTMKETQSPAPLQNSSGDPAEEESPV",6,2.5
"Monocarboxylate transporter 2 (Homo sapiens), O60669 (protein) MPPMPSAPPVHPPPDGGWGWIVVGAAFISIGFSYAFPKAVTVFFKEIQQIFHTTYSEIAWISSIMLAVMYAGGPVSSVLVNKYGSRPVVIAGGLLCCLGMVLASFSSSVVQLYLTMGFITGLGLAFNLQPALTIIGKYFYRKRPMANGLAMAGSPVFLSSLAPFNQYLFNTFGWKGSFLILGSLLLNACVAGSLMRPLGPNQTTSKSKNKTGKTEDDSSPKKIKTKKSTWEKVNKYLDFSLFKHRGFLIYLSGNVIMFLGFFAPIIFLAPYAKDQGIDEYSAAFLLSVMAFVDMFARPSVGLIANSKYIRPRIQYFFSFAIMFNGVCHLLCPLAQDYTSLVLYAVFFGLGFGSVSSVLFETLMDLVGAPRFSSAVGLVTIVECGPVLLGPPLAGKLVDLTGEYKYMYMSCGAIVVAASVWLLIGNAINYRLLAKERKEENARQKTRESEPLSKSKHSEDVNVKVSNAQSVTSERETNI",6.5,0.025
